Assay results from patent US20210206877A1 (Genentech, published 2021).

Target: T1, BACE1 endogenous to primary cortical neurons from E16.5 CD1 mice (mouse, UniProt P56818 46-501)
Test: cell-based or functional assay

T1 sequence (P56818 46-501): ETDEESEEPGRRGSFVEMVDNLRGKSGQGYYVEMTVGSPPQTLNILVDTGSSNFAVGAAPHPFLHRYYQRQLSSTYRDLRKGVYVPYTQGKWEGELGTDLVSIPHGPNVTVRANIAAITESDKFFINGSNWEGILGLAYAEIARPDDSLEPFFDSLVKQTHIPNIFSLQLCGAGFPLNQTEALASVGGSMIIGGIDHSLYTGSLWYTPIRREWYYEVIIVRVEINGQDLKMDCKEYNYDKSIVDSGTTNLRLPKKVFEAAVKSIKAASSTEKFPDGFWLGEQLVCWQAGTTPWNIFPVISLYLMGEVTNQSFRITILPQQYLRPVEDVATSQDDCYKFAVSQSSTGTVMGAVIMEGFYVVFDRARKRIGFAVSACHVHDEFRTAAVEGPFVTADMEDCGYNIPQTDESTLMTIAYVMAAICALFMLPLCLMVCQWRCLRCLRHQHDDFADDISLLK

| max % inhibition, Abeta x-40 in mouse cortical neurons [%] | Binder |
| --- | --- |
| 63 | 6311 (antibody, V domains shown) VH: QLQLQESGPGLVKPSETLSLTCTVSGGSISWSSYYWSWIRQPPGKGLEWIGSIYRSGRTYYNPSLKSRVTISVDTSKNQFSLKLSSVTAADTAVYYCARVGHGINYFDLWGRGTLVTVSS VL: EIVLTQSPATLSLSPGERATLSCRASQSVSSYLAWYQQKPGQAPRLLIYDASNRATGIPARFSGSGSGTDFTLTISSLEPEDFAVYYCQQSLTWPPRTFGGGTKVEIK |
| 73 | 6315 (antibody, V domains shown) VH: QLQLQESGPGLVKPSETLSLTCTVSGGSISRGSYYWGWIRQPPGKGLEWIGMIYYSGSTWYNPSLKSRVTISVDTSKNQFSLKLSSVTAADTAVYYCARVGHGVSYFDLWGRGTLVTVSS VL: EIVLTQSPATLSLSPGERATLSCRASQSVSSYLAWYQQKPGQAPRLLIYDASKRATGIPARFSGSGSGTDFTLTISSLEPEDFAVYYCQQSLVWPPRTFGGGAKVEIK |
| 67 | 6305 (antibody, V domains shown) VH: QVQLVQSGAEVKKPGSSVKVSCKASGGTLSGYAISWVRQAPGQGLEWMGNIIPGFGTANYAQKSQGRVTITADESTSTAYMELSSLRSEDTAVYYCARSGGTRYGMLDVWGQGTMVTVSS VL: EIVLTQSPATLSVSPGERATLSCRASQSVGSNLAWYQQKPGQAPRLLIYGASTRATGIPARFSGSGSGTEFTLTISSLQSEDFAVYYCQQSFVWPPRTFGGGTKVEIK |
| 67 | 6313 (antibody, V domains shown) VH: QLQLQESGPGLVKPSETLSLTCTVSGGSISRGSYYWGWIRQPPGKGLEWIGMIYYSGSTWYNPSLKSRVTISVDTSKNQFSLKLSSVTAADTAVYYCARVGHGVSYFDLWGRGTLVTVSS VL: EIVLTQSPATLSLSPGERATLSCRASQSVSSYLAWYQQKPGQAPRLLIYDASNRATGIPARFSGSGSGTDFTLTISSLEPEDFAVYYCQQAYVWPPRTFGGGTKVEIK |
| 60 | 6309 (antibody, V domains shown) VH: QLQLQESGPGLVKPSETLSLTCTVSGGSISWSSYYWSWIRQPPGKGLEWIGSIYRSGRTYYNPSLKSRVTISVDTSKNQFSLKLSSVTAADTAVYYCARVGHGINYFDLWGRGTLVTVSS VL: EIVLTQSPATLSLSPGERATLSCRASQSVSSYLAWYQQKPGQAPRLLIYDASNRATGIPARFSGSGSGTDFTLTISSLEPEDFAVYYCQQSITWPPRTFGGGTKVEIK |
| 71 | 6310 (antibody, V domains shown) VH: QLQLQESGPGLVKPSETLSLTCTVSGGSISWSSYYWSWIRQPPGKGLEWIGSIYRSGRTYYNPSLKSRVTISVDTSKNQFSLKLSSVTAADTAVYYCARVGHGINYFDLWGRGTLVTVSS VL: EIVLTQSPATLSLSPGERATLSCRASQSVSSYLAWYQQKPGQAPRLLIYDASNRATGIPARFSGSGSGTDFTLTISSLEPEDFAVYYCQQSVTWPPRTFGGGTKVEIK |
| 71 | 6314 (antibody, V domains shown) VH: QLQLQESGPGLVKPSETLSLTCTVSGGSISRGSYYWGWIRQPPGKGLEWIGMIYYSGSTWYNPSLKSRVTISVDTSKNQFSLKLSSVTAADTAVYYCARVGHGVSYFDLWGRGTLVTVSS VL: EIVLTQSPATLSLSPGERATLSCRASQSVSSYLAWYQQKPGQAPRLLIYDASNRATGIPARFSGSGSGTDFTLTISSLEPEDFAVYYCQQSIVWPPRTFGGGTKVEIK |
| 76 | 6303 (antibody, V domains shown) VH: QVQLVQSGAEVKKPGSSVKVSCKASGGTLSGYAISWVRQAPGQGLEWMGNIIPGFGTANYAQKSQGRVTITADESTSTAYMELSSLRSEDTAVYYCARSGGTRYGMLDVWGQGTMVTVSS VL: EIVMTQSPATLSVSPGERATLSCRASQSVSSNLAWYQQKPGQAPRLLIFGASTRATGIPARFSGSGSGTEFTLTISSLQSEDFAVYYCQQLLTWPPRTFGGGTKVEIK |
| 60 | 6308 (antibody, V domains shown) VH: QLQLQESGPGLVKPSETLSLTCTVSGGSISWSSYYWSWIRQPPGKGLEWIGSIYRSGRTYYNPSLKSRVTISVDTSKNQFSLKLSSVTAADTAVYYCARVGHGINYFDLWGRGTLVTVSS VL: EIVLTQSPATLSLSPGERATLSCRASQSVSSYLAWYQQKPGQAPRLLIYDASKRATGIPARFSGSGSGTDFTLTISSLEPEDFAVYYCQQSLVWPPRTFGGGTKVEIK |
| 68 | 6307 (antibody, V domains shown) VH: QLQLQESGPGLVKPSETLSLTCTVSGGSISWSSYYWSWIRQPPGKGLEWIGSIYRSGRTYYNPSLKGRVTISVDTSKNQFSLKLSSVTAADTAVYYCARVGHGINYFDLWGRGTLVTVSS VL: EIVLTQSPATLSLSPGERATLSCRASQSVSSYLAWYQQKPGQAPRLLIYDASNRATGIPARFSGSGSGTDFTLTISSLEPEDFAVYYCQQSIVWPPRTFGGGTKVEIK |

Target: T1, BACE1 endogenous to primary cortical …
Test: cell-based or functional assay
Remark: another data set of the same source

| max % inhibition, Abeta x-40 in mouse cortical neurons [%] | Binder |
| --- | --- |
| 87 | antibody 6266 (antibody, V domains shown) VH: EVQLVQSGAEVKKPGSSVKVSCKASGGTLSGYGVSWVRQAPGQGLEWMGNIIPGFGTANYAQKFQGRVTITADESTSTAYMELSSLRSEDTAVYYCARSGGTKYGMLDVWGQGTMVTVSS VL: EIVMTQSPATLSVSPGERATLSCRASQSVSSNLAWYQQKPGQAPRLLIYGASTRATGIPARFSGSGSGTEFTLTISSLQSEDFAVYYCQQLILWPPRTFGGGTKVEIK |

Target: T1, BACE1 endogenous to primary cortical …
Test: cell-based or functional assay
Remark: another data set of the same source

| IC50, inhibition of Aβx-40 production in primary mouse cortical neuron cultures (sandwich ELISA of supernatants) [nM] | Binder |
| --- | --- |
| 1.7 | antibody 6266 (antibody, V domains shown) VH: EVQLVQSGAEVKKPGSSVKVSCKASGGTLSGYGVSWVRQAPGQGLEWMGNIIPGFGTANYAQKFQGRVTITADESTSTAYMELSSLRSEDTAVYYCARSGGTKYGMLDVWGQGTMVTVSS VL: EIVMTQSPATLSVSPGERATLSCRASQSVSSNLAWYQQKPGQAPRLLIYGASTRATGIPARFSGSGSGTEFTLTISSLQSEDFAVYYCQQLILWPPRTFGGGTKVEIK |
